Source: PMC5066740

Key:
[1] = target: MtTT8 (Medicago truncatula)
[2] = target: MtWD40-1 (Medicago truncatula)

Chain of MtTT8 (Medicago truncatula) (main, as listed by the source): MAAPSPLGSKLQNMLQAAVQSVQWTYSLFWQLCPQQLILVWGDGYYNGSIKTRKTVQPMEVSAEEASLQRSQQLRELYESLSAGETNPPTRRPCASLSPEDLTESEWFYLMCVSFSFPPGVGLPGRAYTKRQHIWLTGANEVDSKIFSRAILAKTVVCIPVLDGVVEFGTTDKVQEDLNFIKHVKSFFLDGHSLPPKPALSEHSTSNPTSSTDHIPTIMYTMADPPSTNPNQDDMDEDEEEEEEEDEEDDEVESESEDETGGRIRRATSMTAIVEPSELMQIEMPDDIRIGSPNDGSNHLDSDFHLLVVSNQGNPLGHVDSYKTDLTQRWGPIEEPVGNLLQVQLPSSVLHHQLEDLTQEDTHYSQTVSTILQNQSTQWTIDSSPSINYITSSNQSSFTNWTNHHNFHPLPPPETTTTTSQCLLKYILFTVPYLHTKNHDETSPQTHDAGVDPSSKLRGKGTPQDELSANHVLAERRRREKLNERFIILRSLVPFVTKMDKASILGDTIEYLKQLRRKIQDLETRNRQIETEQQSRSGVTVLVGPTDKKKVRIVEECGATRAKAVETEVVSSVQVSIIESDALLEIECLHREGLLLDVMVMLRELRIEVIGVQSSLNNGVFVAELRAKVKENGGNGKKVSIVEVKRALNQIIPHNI

Medicago PROANTHOCYANIDIN REGULATOR (MtPAR) (natural protein)
ANR promoter::luciferase reporter activity in Arabidopsis leaves co-bombarded with 35S-driven MtPAR, MtTT8 and MtWD40-1 effectors, against empty vector controls [1]: 9 fold | ANR promoter::luciferase reporter activity in Arabidopsis leaves co-bombarded with 35S-driven MtPAR, MtTT8 and MtWD40-1 effectors, against empty vector controls [2]: 9 fold
